Target: CgYps1 (C. glabrata (endogenous in derivatives of strain BG2))
Experiment: co-IP; precleared lysates (6 mg) incubated with anti-CgYps1 antibody-conjugated beads for 12 h at 4°C; blots with anti-CgYps1 and anti-CgPst2; cells untreated or treated with menadione (90 μM for 90 min)

## CgPst2 (from UniProt Q6FM13 1-198) (natural protein)
  amount of CgPst2 co-precipitated in MD-treated against untreated cells: 40 % lower

From paper PMC7943015
